For data set [1], the target named is EGFR on A549 cells (endogenous) (human) (UniProt P00533). In words: cell binding, radiolabeled aptamer. The following applies: A549 cells; binding decreased by EGFR shRNA and 1 uM EGF; 2'-fluoro pyrimidines; Filter binding: 1 nM radiolabeled RNA, PBS + 0.01% BSA, 15 min, 37 C (5 mM DTT for monomer); CL4sc background subtracted; pull-down: 200 nM aptamer on A549 ….

Data set [2] has as its target EGFR on NIH/EGFR cells (human) (UniProt P00533). In words: cell binding, radiolabeled aptamer. The note with it: apparent Kd; parental NIH3T3 not bound; 2'-fluoro pyrimidines; Filter binding: 1 nM radiolabeled RNA, PBS + 0.01% BSA, 15 min, 37 C (5 mM DTT for monomer); CL4sc background subtracted; pull-down: 200 nM aptamer on A549 ….

As to “GCCUUAGUAACGUGCUUUGAUGUCGAUUCGACAGGAGGC [CL4]”, the figures for the Kd in data set [1] and in data set [2] were 0.038 µM and 0.06 µM, respectively.

The values above are taken from PMC3167817.
